Results on 18 molecules are retold here after patent US20240209095A1 (DEVELOPMENT CENTER FOR BIOTECHNOLOGY, published 2024).

B1: 3C3 humanized antibody HuB2Hu0 (antibody, V domains shown)
VH: EVQLQESGPGLVKPSQTLSLTCTVSGYSITSDYWDWIRKPPGKGLEYMGYISYTGSTYYNPSLRSRITISRDTSKNQYSLKLSSVTAADTAVYYCARRGGWLSPFVYWGQGTLVTVSS
VL: DIVMTQSPDSLAVSLGERATINCKSRQSLLFSSNQKNSLAWYQQKPGQPPKLLIYWASTRESGVPDRFSGSGSGTDFTLTISSLQAEDVAVYYCQQYYTYPFTFGQGTKLEIK
notes: Human IgG, kappa, from pTCAED vectors; also called 3C3-HuB2Hu0; 3C3 HuB2Hu0
B2: 1G8 humanized antibody HuHu2 (antibody, V domains shown)
VH: QVQLQESGPGLVKPSQTLSLTCTVSGYSITSDYWNWIRQPPGKGLEWIGYISYTGSTYYNPSLKSRVTISVDTSKNQFSLKLSSVTAADTAVYYCARRGEWLSPFAYWGQGTLVTVSS
VL: DIVMTQTPLSLSVTPGQPASISCKSSQSLLYSSNQKNSLAWYLQKPGQSPQLLIYWASTRESGVPDRFSGSGSGTDFTLKISRVEAEDVGVYYCQQYYTYPFTFGQGTKLEIK
notes: Human IgG, kappa, from pTCAED vectors; also called 1G8 HuHu2
B3: 1G8 humanized antibody HuHu (antibody, V domains shown)
VH: QVQLQESGPGLVKPSQTLSLTCTVSGYSITSDYWNWIRQPPGKGLEWIGYISYTGSTYYNPSLKSRVTISVDTSKNQFSLKLSSVTAADTAVYYCARRGEWLSPFAYWGQGTLVTVSS
VL: DIQMTQSPSSLSASVGDRVTITCKSSQSLLYSSNQKNSLAWYQQKPGKAPKLLIYWASTRESGVPSRFSGSGSGTDFTLTISSLQPEDFATYYCQQYYTYPFTFGQGTKLEIK
notes: Human IgG, kappa, from pTCAED vectors; also called 1G8 HuHu
B4: 1G8 humanized antibody HuB2Hu2 (antibody, V domains shown)
VH: EVQLQESGPGLVKPSQTLSLTCTVSGYSITSDYWNWIRKPPGKGLEYMGYISYTGSTYYNPSLKSRITISRDTSKNQYSLKLSSVTAADTAVYYCARRGEWLSPFAYWGQGTLVTVSS
VL: DIVMTQTPLSLSVTPGQPASISCKSSQSLLYSSNQKNSLAWYLQKPGQSPQLLIYWASTRESGVPDRFSGSGSGTDFTLKISRVEAEDVGVYYCQQYYTYPFTFGQGTKLEIK
notes: Human IgG, kappa, from pTCAED vectors; also called 1G8 HuB2Hu2
B5: 1G8 humanized antibody HuB2Hu0 (antibody, V domains shown)
VH: EVQLQESGPGLVKPSQTLSLTCTVSGYSITSDYWNWIRKPPGKGLEYMGYISYTGSTYYNPSLKSRITISRDTSKNQYSLKLSSVTAADTAVYYCARRGEWLSPFAYWGQGTLVTVSS
VL: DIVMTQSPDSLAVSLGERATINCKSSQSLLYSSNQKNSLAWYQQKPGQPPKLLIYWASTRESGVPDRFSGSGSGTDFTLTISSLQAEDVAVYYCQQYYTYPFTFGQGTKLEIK
notes: Human IgG, kappa, from pTCAED vectors; also called 1G8 HuB2Hu0
B6: 1G8 humanized antibody HuB2Hu (antibody, V domains shown)
VH: EVQLQESGPGLVKPSQTLSLTCTVSGYSITSDYWNWIRKPPGKGLEYMGYISYTGSTYYNPSLKSRITISRDTSKNQYSLKLSSVTAADTAVYYCARRGEWLSPFAYWGQGTLVTVSS
VL: DIQMTQSPSSLSASVGDRVTITCKSSQSLLYSSNQKNSLAWYQQKPGKAPKLLIYWASTRESGVPSRFSGSGSGTDFTLTISSLQPEDFATYYCQQYYTYPFTFGQGTKLEIK
notes: Human IgG, kappa, from pTCAED vectors; also called 1G8 HuB2Hu
B7: 1G8 humanized antibody HuHu0 (antibody, V domains shown)
VH: QVQLQESGPGLVKPSQTLSLTCTVSGYSITSDYWNWIRQPPGKGLEWIGYISYTGSTYYNPSLKSRVTISVDTSKNQFSLKLSSVTAADTAVYYCARRGEWLSPFAYWGQGTLVTVSS
VL: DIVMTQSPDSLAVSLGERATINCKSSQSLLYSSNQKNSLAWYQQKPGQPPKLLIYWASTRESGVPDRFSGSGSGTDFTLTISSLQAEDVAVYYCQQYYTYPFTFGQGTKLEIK
notes: Human IgG, kappa, from pTCAED vectors; also called 1G8 HuHu0
B8: 3C3 heavy chain M / light chain Hu (antibody, V domains shown)
VH: EVQLQESGPGLTKPSQTLSLTCSVTGYSITSDYWDWIRKFPGNKLEYMGYISYTGSTYYNPSLRSRISITRDTSKNQYYLQLSSVTSEDSATYYCARRGGWLSPFVYWGQGTLVTVSA
VL: DIQMTQSPSSLSASVGDRVTITCKSRQSLLFSSNQKNSLAWYQQKPGKAPKLLIYWASTRESGVPSRFSGSGSGTDFTLTISSLQPEDFATYYCQQYYTYPFTFGQGTKLEIK
notes: Human IgG, kappa, from pTCAED vectors; tested as culture supernatant
B9: mouse-human chimera 3C3 MM (antibody, V domains shown)
VH: EVQLQESGPGLTKPSQTLSLTCSVTGYSITSDYWDWIRKFPGNKLEYMGYISYTGSTYYNPSLRSRISITRDTSKNQYYLQLSSVTSEDSATYYCARRGGWLSPFVYWGQGTLVTVSA
VL: DTVMSQSPSSLGVSVGERVTLTCKSRQSLLFSSNQKNSLAWYQQKPGQSPKLLIYWASTRESGVPDRFTGSGSGTDFTLTISSVKSEDLAVYYCQQYYTYPFTFGAGTSLELK
notes: Variable regions in human chimera antibody expression vectors pTCAED heavy and light; human IgG, kappa (detected with anti-human Kappa); also called 3C3 heavy chain M / light chain M; chimera PD-L1
B10: 3C3 heavy chain M / light chain Hu2 (antibody, V domains shown)
VH: EVQLQESGPGLTKPSQTLSLTCSVTGYSITSDYWDWIRKFPGNKLEYMGYISYTGSTYYNPSLRSRISITRDTSKNQYYLQLSSVTSEDSATYYCARRGGWLSPFVYWGQGTLVTVSA
VL: DIVMTQTPLSLSVTPGQPASISCKSRQSLLFSSNQKNSLAWYLQKPGQSPQLLIYWASTRESGVPDRFSGSGSGTDFTLKISRVEAEDVGVYYCQQYYTYPFTFGQGTKLEIK
notes: as for B8
B11: 3C3 heavy chain Hu-B1 / light chain Hu0 (antibody, V domains shown)
VH: EVQLQESGPGLVKPSQTLSLTCTVSGYSITSDYWDWIRQPPGKGLEWMGYISYTGSTYYNPSLRSRITISRDTSKNQYSLKLSSVTAADTAVYYCARRGGWLSPFVYWGQGTLVTVSS
VL: DIVMTQSPDSLAVSLGERATINCKSRQSLLFSSNQKNSLAWYQQKPGQPPKLLIYWASTRESGVPDRFSGSGSGTDFTLTISSLQAEDVAVYYCQQYYTYPFTFGQGTKLEIK
notes: as for B8
B12: 3C3 heavy chain Hu-B1 / light chain Hu2 (antibody, V domains shown)
VH: EVQLQESGPGLVKPSQTLSLTCTVSGYSITSDYWDWIRQPPGKGLEWMGYISYTGSTYYNPSLRSRITISRDTSKNQYSLKLSSVTAADTAVYYCARRGGWLSPFVYWGQGTLVTVSS
VL: DIVMTQTPLSLSVTPGQPASISCKSRQSLLFSSNQKNSLAWYLQKPGQSPQLLIYWASTRESGVPDRFSGSGSGTDFTLKISRVEAEDVGVYYCQQYYTYPFTFGQGTKLEIK
notes: as for B8
B13: 3C3 heavy chain Hu-B1 / light chain M (antibody, V domains shown)
VH: EVQLQESGPGLVKPSQTLSLTCTVSGYSITSDYWDWIRQPPGKGLEWMGYISYTGSTYYNPSLRSRITISRDTSKNQYSLKLSSVTAADTAVYYCARRGGWLSPFVYWGQGTLVTVSS
VL: DTVMSQSPSSLGVSVGERVTLTCKSRQSLLFSSNQKNSLAWYQQKPGQSPKLLIYWASTRESGVPDRFTGSGSGTDFTLTISSVKSEDLAVYYCQQYYTYPFTFGAGTSLELK
notes: as for B8
B14: 3C3 heavy chain M / light chain Hu0 (antibody, V domains shown)
VH: EVQLQESGPGLTKPSQTLSLTCSVTGYSITSDYWDWIRKFPGNKLEYMGYISYTGSTYYNPSLRSRISITRDTSKNQYYLQLSSVTSEDSATYYCARRGGWLSPFVYWGQGTLVTVSA
VL: DIVMTQSPDSLAVSLGERATINCKSRQSLLFSSNQKNSLAWYQQKPGQPPKLLIYWASTRESGVPDRFSGSGSGTDFTLTISSLQAEDVAVYYCQQYYTYPFTFGQGTKLEIK
notes: as for B8
B15: 3C3 heavy chain Hu-B1 / light chain Hu (antibody, V domains shown)
VH: EVQLQESGPGLVKPSQTLSLTCTVSGYSITSDYWDWIRQPPGKGLEWMGYISYTGSTYYNPSLRSRITISRDTSKNQYSLKLSSVTAADTAVYYCARRGGWLSPFVYWGQGTLVTVSS
VL: DIQMTQSPSSLSASVGDRVTITCKSRQSLLFSSNQKNSLAWYQQKPGKAPKLLIYWASTRESGVPSRFSGSGSGTDFTLTISSLQPEDFATYYCQQYYTYPFTFGQGTKLEIK
notes: as for B8
B16: 3C3 humanized antibody HuHu0 (antibody, V domains shown)
VH: QVQLQESGPGLVKPSQTLSLTCTVSGYSITSDYWDWIRQPPGKGLEWIGYISYTGSTYYNPSLRSRVTISVDTSKNQFSLKLSSVTAADTAVYYCARRGGWLSPFVYWGQGTLVTVSS
VL: DIVMTQSPDSLAVSLGERATINCKSRQSLLFSSNQKNSLAWYQQKPGQPPKLLIYWASTRESGVPDRFSGSGSGTDFTLTISSLQAEDVAVYYCQQYYTYPFTFGQGTKLEIK
notes: Human IgG, kappa, from pTCAED vectors; also called 3C3 heavy chain Hu / light chain Hu0
B17: 3C3 heavy chain Hu-B2 / light chain M (antibody, V domains shown)
VH: EVQLQESGPGLVKPSQTLSLTCTVSGYSITSDYWDWIRKPPGKGLEYMGYISYTGSTYYNPSLRSRITISRDTSKNQYSLKLSSVTAADTAVYYCARRGGWLSPFVYWGQGTLVTVSS
VL: DTVMSQSPSSLGVSVGERVTLTCKSRQSLLFSSNQKNSLAWYQQKPGQSPKLLIYWASTRESGVPDRFTGSGSGTDFTLTISSVKSEDLAVYYCQQYYTYPFTFGAGTSLELK
notes: as for B8
B18: 3C3 heavy chain Hu / light chain M (antibody, V domains shown)
VH: QVQLQESGPGLVKPSQTLSLTCTVSGYSITSDYWDWIRQPPGKGLEWIGYISYTGSTYYNPSLRSRVTISVDTSKNQFSLKLSSVTAADTAVYYCARRGGWLSPFVYWGQGTLVTVSS
VL: DTVMSQSPSSLGVSVGERVTLTCKSRQSLLFSSNQKNSLAWYQQKPGQSPKLLIYWASTRESGVPDRFTGSGSGTDFTLTISSVKSEDLAVYYCQQYYTYPFTFGAGTSLELK
notes: as for B8

Bounds are passed on as bounds.

One assay deals with human PD-L1 expressed on cells (HCC827 cells; PD-L1 aAPC/CHO-K1 cells) (human, UniProt Q9NZQ7 19-290). In words: cell-based or functional assay.
Sequence of human PD-L1 expressed on cells (HCC827 cells; PD-L1 aAPC/CHO-K1 cells) (Q9NZQ7 19-290): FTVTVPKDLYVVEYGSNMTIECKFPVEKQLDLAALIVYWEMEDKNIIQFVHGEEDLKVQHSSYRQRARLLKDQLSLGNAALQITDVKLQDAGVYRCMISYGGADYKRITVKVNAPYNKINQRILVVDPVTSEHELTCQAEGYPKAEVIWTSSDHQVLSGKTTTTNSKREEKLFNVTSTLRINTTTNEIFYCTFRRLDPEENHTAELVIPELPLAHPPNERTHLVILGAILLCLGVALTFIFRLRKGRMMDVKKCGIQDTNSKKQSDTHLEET
On to B1, for which the “3C3 humanized antibodies Blockade Reporter Assay EC50” value turned out to be 0.477 nM.

For the next assay, the target named is T1, PDL1-hFc (UniProt Q9NZQ7 19-238).
T1 construct: Coated at 1 µg/ml in the ELISAs of the chimeric and humanized antibodies; construct not described
T1 sequence (Q9NZQ7 19-238): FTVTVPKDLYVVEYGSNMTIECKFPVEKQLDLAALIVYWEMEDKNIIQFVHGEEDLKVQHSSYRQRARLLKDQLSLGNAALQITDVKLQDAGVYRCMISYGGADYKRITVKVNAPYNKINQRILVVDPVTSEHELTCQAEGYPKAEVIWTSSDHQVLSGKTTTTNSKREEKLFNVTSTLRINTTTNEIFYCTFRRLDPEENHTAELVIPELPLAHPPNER
In words: ELISA titration on PDL1-hFc, KD compared with parental 3C3 (FIG. 10). The method, then:
(§1) ELISA plates were coating with PDL1-hFc 1 ug/ml and blocked by 5% milk PBS, then add assay antibodies form 45 nM to 2.7×10⁻³ nM dilute (4× fold dilution). Assay will measured by add goat anti-human KAPPA HRP IgG 1:4000 and binding curve and KD was determined by GraphPad Prism software using One site-specific binding for none linear fit methods.
(In general: In an ELISA, binding on a coated surface is turned into a signal by an enzyme label.)
As for B1, the “fold affinity loss against parental mouse clone 3C3” value was < 2 fold.

The target of a further assay is T1, PDL1-hFc. Briefly: ELISA titration on PDL1-hFc 1 ug/ml, 45 nM to 2.7×10^-3 nM, one site-specific binding fit. The method, then:
as §1
As usually defined, the Kd is the concentration at which binding is half-saturated. Regarding B2, binding was put at a Kd of 9.68 nM.

The molecule B3 came in with a Kd of 3.24 nM. B4 had a Kd of 0.108 nM.

With B5, the Kd stood at 0.238 nM. On the same count and under the same terms, the value for B6 was 0.248 nM. In turn, B1 returned a Kd of 0.108 nM. In turn, B7 had a Kd of 3.99 nM.

Another assay deals with T1, PDL1-hFc. In words: ELISA, PDL1-hFc coated 1 µg/ml, antibody supernatant at 300 ng/ml, anti-human Kappa HRP. How it is done:
The binding activity of humanized antibodies could be efficiently compared by all combination of heavy chains and light chains using mini scale antibody expression. The concentration of antibodies in culture supernatant was determent by anti-human IgG ELISA. For PDL1 ELISA, plates were coating with PDL1-hFc 1 μg/ml and blocked by 5% milk PBS. Assay antibodies were adjusted to 300 ng/ml, 100 μl/well. Anti-PDL1 signals were measured by secondary goat anti-human Kappa HRP IgG 1:4000 and color developed by TMB substrates (KPL). Optical absorption value was measured at OD450-655 nm by Bio-Rad ELISA reader.
B8: the “OD450-650 nM, 300 ng/ml PDL1 binding” value stood at 1.85 OD. Still for that read-out and setting: then B9, with 1.52 OD; and B10, with 1.55 OD.

For B11, the “OD450-650 nM, 300 ng/ml PDL1 binding” value came out at 0.539 OD.

As for B12, the “OD450-650 nM, 300 ng/ml PDL1 binding” value was 0.349 OD. On the same count and under the same terms, the value for B13 was 0.61 OD; that for B14 was 1.58 OD. Still for that read-out and setting: then B15, with 0.455 OD; and B16, with 0.15 OD; and B17, with 1.2 OD.

For the molecule B18, the “OD450-650 nM, 300 ng/ml PDL1 binding” value was 0.25 OD. For B1, the “OD450-650 nM, 300 ng/ml PDL1 binding” value was determined as 1.13 OD.
